19 sequences from the DeepSol protein solubility set can be followed below.

The nature of this data set: soluble on expression in E. coli; label from the status in PepcDB or PDB records.
For the sequence “MAHHHHHHGSRFLIRLVPEDKDRAFKVPYNHQYYLQGLIYNAIKSSNPKLATYLHEVKGPKLFTYSLFMAEKREHPKGLPYFLGYKKGFFYFSTCVPEIAEALVNGLLMNPEVRLWDERFYLHEIKVLREPKKFNGSTFVTLSPIAVTVVRKGKSYDVPPMEKEFYSIIKDDLQDKYVMAYGDKPPSEFEMEVLIAKPKRFRIKPGIYQTAWHLVFRAYGNDDLLKVGYEVGFGEKNSLGFGMVKVEGNKTTKEAEEQEKITFNSREELKTGV”, the “soluble on expression in E. coli” value is given as “soluble”. Turning to “MAHHHHHHMNNSKENDSVSKLSFKNKNIKLIKVPKFVSNKWLQYNNKDIVGLLGCNNNNNNDSEITELYVQKDDSDNVKKLRCNKNNTVNTYILKQNVIKLKSTNKSVSNSAGTLNNKSNDYTNTNKGKNTMNNLSKDNSDKHKEFDYVVCADLIKTCDYTYSFLPTLDQDYSSILKERHYKTNVKKERFTIIETRNEENMDATHTLFKYYTSEDKLNNESKDKNMKNNKRLFTDNDNLNTVSHSTSKQKAKQSKKMHVFDLDKAKISIFKIFEREGQNGVPFSFFTKSFNIPANHIKGILDEIAIKGKRDTDKKTVYFLKNCIG”, the “soluble on expression in E. coli” value was “not soluble”. “MGSDKIHHHHHHMNFDEKPYLRSIALKHQGLAEAKVTLIDGEFHDESAVRVQDCYPFTIPALAGFDSLDFDADVTFFVGENGSGKSTLLEAIAVAMGLNAEGGNKNTHFATKVSHSNLGYYLKTIKSFKKPKDSYFLRAESFYNLASYMEEDGREAYLGSYGGTSLHQQSHGESFMATLLHKFRGQGLYLMDEPEAALSPSRQLAALSAIHQLVENKSQFIIATHSPILLAYPRAKIYQFSNQGIVQITYQETEHYQITKAFLNQPEKLLASLGVG”: the “soluble on expression in E. coli” value was “not soluble”. Then “MTAAPGTSMATPHVAGIAALLLQAHPSWTPDKVKTALIETADIVKPDEIADIAYGAGRVNAYKAINYDNYAKLVFTGYVANKGSQTHQFVISGASFVTATLYWDNANSDLDLYLYDPNGNQVDYSYTAYYGFEKVGYYNPTDGTWTIKVVSYSGSANYQVDVVSDGSLSQPGSSPSPQPEPTVDAKTFQGSVHLEHHHHHH”, with “not soluble”; and “MNVTIYDVAREASVSMATVSRVVNGNPNVKPSTRKKVLETIERLGYRPNAVARGLASKKTTTVGVIIPDISNIFYAELARGIEDIASMYKYNIILSNSDQNQDKQLHLLNNMLGKQVDGIIFMSGNVTEEHVEELKKSPVPVVLAASIESTNQIPSVTIDYEQAAFDAVQSLIDSGHKNIAFVSGTLEEPINHAKKVKGYKRALTESGLPVRDSYIVEGDYTYDSGIEAVEKLLEEDEKPTAIFVGTDEMALGVIHGAQDRGLNVPNDLEIIGFDNTRLSTMVRPQLTSVVQPMYDIGAVAMRLLTKYMNKETVDSSIVELPHRIEFRQSTK”, with “soluble”. Turning to “MSLKITGLRTRRIHIPFDKPIGTSIHRIEGVSGLLVWLDTDEGITGESYLWAIGRHRVPVLESIVRMLGERAIGKDPRDTTARFDEMWTEINFLGHKGVSLFGIAAIDWACWDILGQSLGASVSRLLGRRRDRVTAYASGGLWASMTIPELEAQARDFVAQGFTAVKMRIGKPDIGEDIERVAAVRSAIGSRIKLMADANQGLSVNHAIRLGRKLETFDLVWFEEPVQAYDLEGSARVAAEIDTPIASGETEYGRYGFRDMLERKSADVLMPDLERVGGVTEWVRVAHMAAAYDVPVSPHIFSEHSLQLCGAISNVNYAEHMPWFAELFQERLEMVDGDLLIPDRPGMGFRFDPDAVERYADEGHHHHHH”, the “soluble on expression in E. coli” value is “soluble”. Then “MIPRRSCWLILLLNLLNVQSLLDASWWSTVAQLSTALAGHNVKPVCELPGLSPGQAQVCELFKDHMPAVSIGAQNAIQECQRQFTGHRWNCSTHYSTGMLGPIHKMATREAAFTYAILSAGVTHEIGRRCKQGLLTSCGCSDETKPKNVPTDWSWGGCGDNVEYGYKFSRDFIDIREKEHDPKRNHDNGRSLMNRRNNEAGRKILKRHRKPKCKCHGVSGACNMKTCWMQLPSMEQVGKILRNKYDKAIRVQINDRGNLQLLADEATKERKTRALPTDLVFMDDSPDYCRFDRHSGTLGTEGRVCKRGSGGAEGCDSLCCGRGYNTYTQEVKSKCNCKFEWCCKVVCQTCNNVTQVDICK”, with “not soluble”; and “MGSDKIHHHHHHMVSEQVRERAKAGPIPKADYQALFDALEAERSPRDPEWVQAWIILHCATRQRAFACQRLLSRYNRQCVKRGTMGEYSEFLRHVQDDLGFYLPNGNAYTENFRGVDVGEIMAQCGELAARFAELELEVFANSGTLLGIVREGTLLEHDNDIDLGVLLTARTFEGAAQEWIALTDKLIADGVGVSRSTWSKVTLKLQKIGAFGVDLFPAWIDADDKVYVYPHTFGALRRDQLLPYDLHGPTGLHLPADAEAMLECNYGEGWRVPNVGWGFDWKTANAQFEAFLTAVEAAAAPD”, with “not soluble”. The result for “MGSDKIHHHHHHMASIQNLYETVVGVLGDQASKVISALGEITVECLPEHYISVMTALRDHEELHFELLVDLCGVDYSTYKNEVWQGKRFAVVSQLLSVKNNQRIRVRVWVSDDDFPVVESVVDIYNSADWYEREAFDMYGIMFNNHPDLRRILTDYGFVGHPFRKDFPISGYVEMRYDEEQKRVIYQPVTIEPREITPRIVREENYGGQ” reads “not soluble”; that for “MGSDKIHHHHHHMEKRLDYITDLMALGPTANARTIQRRQTAHRLAIAEAWQVKPGEKILEIGCGQGDLSAVLADQVGSSGHVTGIDIASPDYGAPLTLGQAWNHLLAGPLGDRLTVHFNTNLSDDLGPIADQHFDRVVLAHSLWYFASANALALLFKNMAAVCDHVDVAEWSMQPTALDQIGHLQAAMIQGLLYAIAPSDVANIRTLITPDTLAQIAHDNTWTYTAGTIVEDPTLDDAHWEIATTNALLTELKLSTDLRDRVKPLLEAMSHNGTASLATFTGRITF”, “not soluble”. For the sequence “RAKAFIDAANQYSINELYLISHALLETGNGTSALANGLTYNGKTVYNMYGIGAYDSNPNYYGAKYAYEQGWFTPEAAIIGGAKFIGSSYIHNTAYNQDTLYKMRWSATATHQYATDIGWAYKQVNRMYSLYSLLDG”, the “soluble on expression in E. coli” value was “not soluble”. Then “MSLKDTFSVLLIEDSNADYRLIQEYLGESQSPSFQISRSTDFSAGLSFITNESPDLVMLDLSLPDRTGLEALSEIKRKFPQIPVIICSGAEDKDITVNALQIGAQDYVYKGKFDSYSLSRSLVFAYERNRLALELEKKSVFEQESEERYRLFFQYNPHPAFLFEHDSLEILEINRAVLEKYGYEEKDLIGKSILQIFELSDFDKVKQEIIFFQFGANQASSFVHKKKNGEKLIADTTVYKFRYQNQILDLAVVTDITEMVRNRESILATLAEKDALIQEIHHRVKNNMQIMISLLNLQADNAMSRNLTAKELYNLLKDTESRVFSMSLVHNELYKSNDLSHVDFHSYLNMLLENLWNLYGVGLKIKHLVEAQGLVLSMNIAISLGLIVCELVTNAIKHAFPDGYEGLLKIFARCELGSTIVTIEDNGKGIPKEMISKNHETLGLQLVNILTKQIQGKLHLEVLDPGTKFEIRFPEQKGTVQRKEGHHHHHH”, with “not soluble”; and “MGHHHHHHSHRGAGRVSRWPPPHWLEAWRVSPRPLSPLSPATFGRGFIAVAVIPGLWARGRGCSSDRLPRPAGPARRQFQAASLLTRGWGRAWPWKQILKELDECYERFSRETDGAQK”, with “not soluble”. With “MAKRIQFSTVGGPEVLEYVDFEPEAPGPQAVVVRNKAIGLNFIDTYYRSGLYPAPFLPSGLGAEGAGVVEAVGDEVTRFKVGDRVAYGTGPLGAYSEVHVLPEANLVKLADSVSFEQAAALMLKGLTVQYLLRQTYQVKPGEIILFHAAAGGVGSLACQWAKALGAKLIGTVSSPEKAAHAKALGAWETIDYSHEDVAKRVLELTDGKKCPVVYDGVGQDTWLTSLDSVAPRGLVVSFGNASGPVSGVNLGILAQKDSVYVTRPTLGSYANNAQNLQTMADELFDMLASGKLKVDGIEQYALKDAAKAQIELSARRTTGSTILIP”, the “soluble on expression in E. coli” value is recorded as “soluble”. Then “MKAVSRVHITPHMHWDREWYFTTEESRILLVNNMEEILCRLEQDNEYKYYVLDGQTAILEDYFAVKPENKDRVKKQVEAGKLIIGPWYTQTDTTIVSAESIVRNLMYGMRDCLAFGEPMKIGYLPDSFGMSGQLPHIYNGFGITRTMFWRGCSERHGTDKTEFLWQSSDGSEVTAQVLPLGYAIGKYLPADENGLRKRLDSYFDVLEKASVTKEILLPNGHDQMPLQQNIFEVMDKLREIYPQRKFVMSRFEEVFEKIEAQRDNLATLKGEFIDGKYMRVHRTIGSTRMDIKIAHARIENKIVNLLEPLATLAWTLGFEYHHGLLEKMWKEILKNHAHDSIGCCSDKVHREIVARFELAEDMADNLIRFYMRKIADNMPQSDADKLVLFNLMPWPREEVINTTVRLRASQFNLRDDRGQPVPYFIRHAREIDPGLIDRQIVHYGNYDPFMEFDIQINQIVPSMGYRTLYIEANQPGNVIAAKSDAEGILENAFWQIALNEDGSLQLVDKDSGVRYDRVLQIEESSDDGDEYDYSPAKEEWVITAANAKPQCDIIHEAWQSRAVIRYDMAVPLNLSERSARQSTGRVGVVLVVTLSHNSRRIDVDINLDNQADDHRLRVLVPTPFNTDSVLADTQFGSLTRPVNDSAMNNWQQEGWKEAPVPVWNMLNYVALQEGRNGMAVFSEGLREFEVIGEEKKTFAITLLRGVGLLGKEDLLLRPGRPSGIKMPVPDSQLRGLLSCRLSLLSYTGTPTAAGVAQQARAWLTPVQCYNKIPWDVMKLNKAGFNVPESYSLLKMPPVGCLISALKKAEDRQEVILRLFNPAESATCDATVAFSREVISCSETMMDEHITTEENQGSNLSGPFLPGQSRTFSYRLA”, with “not soluble”.

As to “MGSDKIHHHHHHMRGSAVARDLTDDKAMVHGALSMLARGGAVDQAYAPDAVAEIAHPYGTCTGADITRFYGDLHRALPDANWRPEIFFAGHNHPDERMEGPRVAAQVGSFGHWQGTFTQPLLGIEPTGGVVHLRMCEVHHLNAAGQIAQSWILPDFLDLMDQAGQFPLPPMNGARGLWPGPRGGNGVRMGPPDVAGGNASMAQVLDMHNALNTHVGADVSGLTMAHWDPNFMYYAAAGIGICRGVEGFRRNHQIPFREAVPDRYSKGHFVRIADGRFALTGGRLYATHTGTYLGIPATGRQVHIDVMDFYHFHDQGLICQNWLPFDILKTAHQMGVDLLPALPS”, the “soluble on expression in E. coli” value is on record as “not soluble”. Then “MGSDKIHHHHHHMTRSFYWVDHSTQTFAERDLSKTVVVLPIAAVEQHGPHLPVDVDAAINAEIIRRTVARLQPDTDVLFLPPMMVGKSDEHIAFPGTLAISGETLRHVWLDLARSVKRAGAAKLILFNSHGGQMALMDIVCRDIRIELGMLAVSCSWFRIAPVEDLFSRAEIDHGIHGGDIETSMMLAIAPERVAMDKAENFVPLTVAIEKSGSMLTAEGAVGFGWQAQDLHPAGVCGNASNATAQKGQIVLDRAADGLVSLIAATQAFDLSQLTSQTRFSNLCRARRIP”, with “not soluble”; and “MSTTTDYDDNDVKIITKPVQSKNPVLIEGFPGIGLVGNIASQHIIEELNMEYIGSIDSRYFPSIAVLYEGLINMPVRIYENVEHNLIIVISDIPISHSVSYDVSNALVDWAEAINVKEIASIAGIAIMDGGHKVFGAATTPEMLDKIRDKVEIFQMGTISGISGSVMAECLLRGIPAISLLGATRTQNPDPRAASSVIGVLNELYGLSISTDRLIEQAERIEIELQRLAEDVQATERKGEVKKEFPMYG”, with “soluble”. The result for “MESGKMAPPKNAPRDALVMAQILKDMGITEYEPRVINQMLEFAFRYVTTILDDAKIYSSHAKKPNVDADDVRLAIQCRADQSFTSPPPRDFLLDIARQKNQTPLPLIKPYAGPRLPPDRYCLTAPNYRLKSLIKKGPNQGRLVPRLSVGAVSSKPTTPTIATPQTVSVPNKVATPMSVTSQRFTVQIPPSQSTPVKPVPATTAVQNVLINPSMIGPKNILITTNMVSSQNTANEANPLKRKHEDDDDNDIM” reads “soluble”.
